Experiments:
[1] = target: Saccharomyces cerevisiae Tel1 (TEL1-FLAG), endogenously purified (S. cerevisiae) (UniProt P38110); experiment: cryo-EM structure; Tel1-FLAG purified from S. cerevisiae, 20–50 μg/mL in 20 mM HEPES pH 8.0, 40 mM KOAc, 5 mM MgCl2, 0.1% trehalose, 2 mM DTT, 0.01% NP-40; symmetric dimer (C2, 4.1 Å) and asymmetric dimer (4.3 Å) classes
[2] = target: GST-Xrs2 (full-length S. cerevisiae Xrs2) (S. cerevisiae) (UniProt P33301); experiment: pull-down; glutathione sepharose saturated with full-length GST-Xrs2 added to lysates of yeast expressing wild-type or mutant Tel1; 2 h at 4 °C, washed 3 times with lysis buffer; immunoblot with anti-PAP antibody
Sequence of GST-Xrs2 (full-length S. cerevisiae Xrs2) (S. cerevisiae) (P33301 whole entry): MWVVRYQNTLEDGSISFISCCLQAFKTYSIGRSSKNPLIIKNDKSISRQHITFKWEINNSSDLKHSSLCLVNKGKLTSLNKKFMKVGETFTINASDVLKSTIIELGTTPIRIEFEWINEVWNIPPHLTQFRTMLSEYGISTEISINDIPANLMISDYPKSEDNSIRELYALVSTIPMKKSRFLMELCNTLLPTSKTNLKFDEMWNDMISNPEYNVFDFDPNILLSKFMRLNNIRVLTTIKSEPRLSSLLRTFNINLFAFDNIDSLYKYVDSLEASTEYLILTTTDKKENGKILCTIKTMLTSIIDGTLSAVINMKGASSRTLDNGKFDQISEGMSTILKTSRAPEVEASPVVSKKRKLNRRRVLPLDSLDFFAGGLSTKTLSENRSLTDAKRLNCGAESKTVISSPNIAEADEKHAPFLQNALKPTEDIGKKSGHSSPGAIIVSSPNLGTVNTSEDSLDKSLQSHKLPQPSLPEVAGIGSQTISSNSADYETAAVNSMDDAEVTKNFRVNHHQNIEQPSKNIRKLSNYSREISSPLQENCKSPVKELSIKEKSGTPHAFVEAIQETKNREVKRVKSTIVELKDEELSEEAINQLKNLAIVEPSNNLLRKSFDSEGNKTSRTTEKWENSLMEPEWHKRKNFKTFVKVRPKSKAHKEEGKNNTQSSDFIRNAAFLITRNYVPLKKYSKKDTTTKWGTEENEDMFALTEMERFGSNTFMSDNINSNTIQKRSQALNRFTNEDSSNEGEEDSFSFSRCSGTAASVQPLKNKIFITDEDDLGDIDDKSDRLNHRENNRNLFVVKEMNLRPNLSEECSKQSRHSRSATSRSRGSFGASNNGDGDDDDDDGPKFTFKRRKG

stoichiometry N [1]	decrease of Xrs2 binding against wild-type Tel1 [2] [%]	Substance
2		Saccharomyces cerevisiae Tel1 (TEL1-FLAG), endogenously purified, P38110 1-2787
	100	Tel1 K2751E (TAP-tagged), P38110 1-2787

Source: paper PMC6796912
